Measured values as given in the nanobody polyreactivity screen of Harvey et al. (2022).

assay: yeast display, Sf9 membrane polyspecificity reagent, FACS + sequencing; frameworks hold sequencing errors
How it was run: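 Nanobodies came from a synthetic yeast display library in Saccharomyces cerevisiae BJ5465, induced with galactose for 36–48 hours and stained for 1 hour at 4 °C with 10% biotinylated, detergent-solubilized Sf9 membrane reagent. Cells were enriched on streptavidin microbeads and then FACS-sorted, with low and high (top ~1%) gates set on anti-HA fluorescence for expression and streptavidin fluorescence for reagent binding. Each polyreactivity label reflects the gate a clone came from. Genes were amplified by colony PCR, sequenced by MiSeq 2 × 250 and filtered by CDR length.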

Sequence | polyreactivity (PSR sort gate)
QVQLVESGGGLVQAGGSLRLSCAASGIIFYVNDMGWYREAPGKVRELVADISGGTSTNYADSVKGRFTISRDNAKNTVYLQMNSLKPEDTAVYYCATAFIVPFPGSDYWGQGTQVTVSS | low polyreactivity
QVQLVESGGGLVQAGGSLRLSCAASGIIFYWYAMGWYRQAPGKERELVAAITRVGSTNYADSVKGRFTISRDNAKNTVYLQMNSLKPEDTAVYYCAADLWQRHYLVGFGIRYDYWGQGTQVTVSS | low polyreactivity
QVQLVESGGGLVQAGGSLRLSCAASGIIFYYNAMGWYRQAPGKERELVAAISSSGGSTSYADSVKGRFTISRDNAKNTVFLQMNSLKPEDTAVYYCAADSYPAYLGFVGFDYWGQGTQVTVSS | low polyreactivity
QVQLVESGGGLVQAGGSLRLSCAASGIIFYYYAMGWYRQAPGKERELVAAISTSGGRTYYADSVKGRFTISRDNAKNTVYLQMNSLKPEDTAVYYCAKDFWYVTGGWSSGMDYWGQGTQVTVSS | low polyreactivity
QVQLVESGGGLVQAGGSLRLSCAASGIIFYYYAMGWYRQAPGKERELVAAISWSGGSTYYADSVKGRFTISRDNAKNTVYLQMNSLKPEDTAVYYCAASSTSGYDWGQGTQVTVSS | low polyreactivity
QVQLVESGGGLVQAGGSLRLSCAASGIIFYYYDMGWYRQAPGKERELVAAISWGAGDTYYADSVKGRFTISRDNAKNTVYLQMNSLKPEDTAVYYCAAEFSRSDYQEYDYWGQGTQVTVSS | low polyreactivity
QVQLVESGGGLVQAGGSLRLSCAASGIIIAWYAMGWYRQAPGKERELVAAITSGGGSTYYADSVKGRFTISRDNAKNTVYLQMNSLKPEDTAVYYCAADYQTIGWGYDYWGQGTQVTVSS | low polyreactivity
QVQLVESGGGLVQAGGSLRLSCAASGIIIDYYTMGWYRQAPGKERELVAAINKSGGSTYADSVKGRFTISRDNAKNTVYLQMNSLKPEDNAVYYCAAEVDYSYWPEYARKYYYWGQGTQVTVSS | low polyreactivity
QVQLVESGGGLVQAGGSLRLSCAASGIIIGLYGRGWYRQAPGKERELVAAISSSGGSTYYADSVKGRFTISRDNAKNTVYLQINSLKPEDTAVYYCARVVRSLWGGLYLYDYWGQGTQVTVSS | low polyreactivity
QVQLVESGGGLVQAGGSLRLSCAASGIIIHSYTMGWYRPAPGKERELVAAISTSGSTYYADSVKGRFTISRDNAKNTVYLQMHILKPEDTAVYYCNADYAQSGTNSQVGKYGYWGQGTQVTVSS | high polyreactivity
QVQLVESGGGLVQAGGSLRLSCAASGIIIRKYAMGWYRQAPGKERELVAAITTRGSRTYYADSVKGRFTISRDNAKNTVYLQMNSLKPEDTAVYYCAADRYTVRMDYWGQGTQVTVSS | high polyreactivity
QVQLVESGGGLVQAGGSLRLSCAASGIIIRRYAMGWSRQAPGKERELVAAISWSGGSTYYADSVKGRFTISRDNAKNTVDLQMNSLKPEDTAVYYCAAAAYTRDEYDYWGQGTQVTVSS | high polyreactivity
QVQLVESGGGLVQAGGSLRLSCAASGIIIRSYAMGWDRQAPGKERELVAAITRSGGSTYADSVKGRFTISRDNAKNTVYLQKNSLKPEDTAVYYCAADRYSGWVYRRDDWGQGTQVPVSS | low polyreactivity
QVQLVESGGGLVQAGGSLRLSCAASGIILGRYAMGWYRQAPGKERELVAAITASGGRTYYADSVKWRFTISRDNAKNTVYLQMNSLKPEDTAVYYCNTVYWGYKSHYDYWGQGTQVTVSS | high polyreactivity
QVQLVESGGGLVQAGGSLRLSCAASGIILPYYAMGWYRQAPGKERELVASISQSGSSTYYADSVKGRFTISRDNAKNTVYLQMNSLKPEDTAVYYCNAKPGSWYIRYDYWGQGTQVTVSS | low polyreactivity
QVQLVESGGGLVQAGGSLRLSCAASGIILWYNVMGWYRQAPGKERELVASITGDGDDTYYADSVKGRFTMSRDNAKNTVYLQMNSLKPEDTAVYYCAKENYGILYSTLYDYWGQGTQVTVSS | low polyreactivity
QVQLVESGGGLVQAGGSLRLSCAASGIILYGYARGWYRPAPGKESELVAAISRRGGITYYADTVKARYTISRDNAKNSVYLQMNSLKPEDTAVYYCAADINRRPSYHPDYEYWGQGTQVTVSS | high polyreactivity
QVQLVESGGGLVQAGGSLRLSCAASGIILYRNGMGWYRQAPGKERELVAASSWSTGSTYYADSVKGRFTISRDNAKNTVYLQMNSLKPEDTAVYYCATDYVGYSFGMYYWGQGTQVTVSS | low polyreactivity
QVQLVESGGGLVQAGGSLRLSCAASGIILYVNAMGCYRQAPGKEREFVAAISWGGGSTYYADSVKGRFTISRDNAKNTVYLQMNSLKREDTAVYYCAAEFWSGYPTYTYDYWGQGTQVTVSS | low polyreactivity
QVQLVESGGGLVQAGGSLRLSCAASGIILYYYAMGWYRQAPGKERELVAAINWSGGSTSYADSVKGRFTISRDNAKNTVYLQMNSLKPEDTAVYYCAARLGSWHYQVWNYKYEYWGQGTQVTVSS | high polyreactivity

Sequence | polyreactivity (PSR sort gate)
QVQLVESGGGLVQAGGSLRLSCAASGIIQGVYALGWYRQAPGKERELVAAITSSGGSTYYADSVKGRFTISRDNAKNTVYLQMNSLKPEDTAVYYCAADFDTSVRLYGPTRYDYWGQGTQVTVSS | low polyreactivity
QVQLVESGGGLVQAGGSLRLSCAASGIIRHNAMGCYRPAPGKERELVAGISRRGGSTYYADSVKGRFTISRDNAKNTVYLQMNSLKPEDTAVYYCNARSAGSDLDYWGQGTQVTVSS | high polyreactivity
QVQLVESGGGLVQAGGSLRLSCAASGIISGRNTMGWFRLARGKERELVAAISGSGGSTHYADSVKGRFPSSRDNAKNTVYLQSNSLKPEDTAVYYCAADTAYVYSMDYWGQGTQVTVSS | high polyreactivity
QVQLVESGGGLVQAGGSLRLSCAASGIISRSYTMGWYRQAPGKERELVAVISSSGGSTYYADSVKGRFTISRDNAKNTVYLQMNSLKPEDTAVYYCAARPVTRFQGSDYWGQGTQVTVSS | high polyreactivity
QVQLVESGGGLVQAGGSLRLSCAASGIISRWYAMGWYRQAPGKERELVAAIRWSGGRTYYADSVKGRFTISRDNAKNTVYLQMNSLKPEDTAVYYCAADVRQRGIYGPGPHYYWGQGTQVTVSS | low polyreactivity
QVQLVESGGGLVQAGGSLRLSCAASGIISSVYAMGWSRQAPGKERELVAAISGSGGSTYYADSVKGRFTISRDNAKNTVYLQMNSLKPEDTAVYYCAKGYQYQGNSYGYWGQGTQVTVSS | low polyreactivity
QVQLVESGGGLVQAGGSLRLSCAASGIISSVYAMGWYRQAPGKERELVAAISGSGGSTYYADSVKGRFTISRDNAKNTVYLQMNSQKPEDTAVYYCSKGYQYQGNSYGYWGQGTQVTVSS | low polyreactivity
QVQLVESGGGLVQAGGSLRLSCAASGIISYPTVMGWYRQAPGKERELVPAITSGGRTKYADSVKGRFTISRDNAKNTVYLQMNSLKPEDTAVYYCAARTVYWQSWSQFWGYNYWGQGTQVTVSS | low polyreactivity
QVQLVESGGGLVQAGGSLRLSCAASGIIYGRYAMGWYRQAPGKERELVAAINASGGSTYYADSVKGRFTISRDNAKNTVYLQMNSLKPEDSAVYYCATRSTRSRTSGYYYWGQGTQVTVSS | high polyreactivity
QVQLVESGGGLVQAGGSLRLSCAASGIIYITNAMGWYRQAPGKERELVAAISSTVSTNYADSVKGRFTISRDNAKNTVYLQMNSLKPEDTAVYYCAAEWGLTQGESIYDYWGQGTQVTVSS | low polyreactivity
QVQLVESGGGLVQAGGSLRLSCAASGIIYSINAMGWYRQAPGKERELVAAISRSGGSTNYADSVKGRFTISRDNAKNTVYLQMNSLKPEDSAVYYCATVHRYSVWSHNYWGQGTQVTVSS | high polyreactivity
QVQLVESGGGLVQAGGSLRLSCAASGIIYTYYAMGWYRQAPGKERELVARISSSGGRTYYADSVKGRFTISRDNAKNTVYLQMNSLKPEDTAVYYCAAAIVSYGRNDYWGQGTQVTVSS | high polyreactivity
QVQLVESGGGLVQAGGSLRLSCAASGINFAAYVMGWYRQAPGKERELFAAISKSGGRTYYADSVKGRFTISRDNAKNTVYLQMNSLKPEDTAVYYCAASYTYFSFGIGTDVRYGYWGQGTQVTVSS | high polyreactivity
QVQLVESGGGLVQAGGSLRLSCAASGINFGYNVMGWYRQAPGKERELVAAISGSGSSTYYADSVKGRFTISRDNAKNTVYLQMNSLKPEDTAVYYCARQRYEYRTTYYYWGQGTQVTVSS | high polyreactivity
QVQLVESGGGLVQAGGSLRLSCAASGINFNRYAMGWYRQAPGNERELVAAITSSGGSTHYADSVKGRFTISRDNAKNTVYLQMNSLKPEDTAVYYCAKQFPNNYRYYLHYYYWGQGTQVTVSS | low polyreactivity
QVQLVESGGGLVQAGGSLRLSCAASGINFNYYAMGWYRQAPGKERELVAAISSTGSTYYSDSVKGRFTISRDNAKNTVYLQMNSLKPEDTAVYYCAAEWWDTGFANYGYDYWGQGTQVTVSS | high polyreactivity
QVQLVESGGGLVQAGGSLRLSCAASGINFSEYAMGWSRQAPGKERELVAVITSGGSTYYADSVKGRFTISRDNAKNTVYLQMNSLKPEDTAVYYCAARTAYASRYVNVPYYYWGQGTQVTVSS | high polyreactivity
QVQLVESGGGLVQAGGSLRLSCAASGINFVYYAMGWYRQAPGTEREMVAAISKSSGRTYYADSVKGRFTISRDYAKNTVYLQMNSLKPEDTAVYYCNARYRLSPPPLEYWGQGTQVTVSS | high polyreactivity
QVQLVESGGGLVQAGGSLRLSCAASGINLAGYVMGGYRQAPGKERDLVADISSSGDSTYYADSVKGRFTISRDNAKNTVYLQMNSLLPEDTAVYYCAAEEIIPLIYKGYPFDYWGQGSQVTVSS | low polyreactivity
QVQLVESGGGLVQAGGSLRLSCAASGIPLVSYARGWYRPAPGKVRELVAAISTSGGRTRYADSVKGRFTISRDHAKNTVYIQMNSLKPEDTAVYYCAAELVEPRYNHLPGDGNYWGQGTQVTGSS | high polyreactivity
